± gives the uncertainty stated by the source.
Test: self-splicing fitness, log relative to wild type (ln ratio); higher = more splicing; Tetrahymena group I intron in knt gene, E. coli kanamycin selection, DiMSum; sequences stand for … in CUCUCU…GGAGGGAAAAGUUAUCAGGCAUGCACCUGGUAGCUAGUCUUUAAACCAAUAGAUUGCAUCGGUUUAAAAGGCAAGACCGUCAAAUUGCGGGAAAGGGGUCAACAGCCGUUCAGUACCAAGUCUCAGGGGAAACUUUGAGAUGGCCUUGCAAAGGGUAUGGUAAUAAGCUGACGGACAUGGUCCUAACCACGCAGCCAAGUCCUAAGUCAACAGAUCUUCUGUUGAUAUGGAUGCAGUUCACAGACUAAAUGUCGGUCGGGGAAGAUGUAUUCUUCUCAUAAGAUAUAGUCGGACCUCUCCUUAAUGGGAGCUAGCGGAUGAAGUGAUGCAACACUGGAGCCGCUGGGAACUAAUUUGUAUGCGAAAGUAUAUUGAUUAGUUUUGGAGUACUCGUGGUCG
Summary of the method: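 The eight P1ex-region nucleotides of an intron in the knt kanamycin-resistance gene on pET-22b(+) were all randomised and the library put into E. coli BL21(DE3). Six replicate transformations were grown overnight at 37°C or 30°C on LB agar with or without 25 μg/mL kanamycin, together with 100 μg/mL carbenicillin, 50 μM IPTG and 0.2% rhamnose. Colonies were pooled and amplicon-sequenced on an Illumina HiSeq 2500. Fitness from DiMSum is the error-weighted combination of wild-type-normalised replicate fold changes, kanamycin over none.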

| Sequence | self-splicing fitness (ln) (30 °C) | self-splicing fitness (ln) (37 °C) |
| --- | --- | --- |
| CUGCAGCAAUAUUACGGACC | -5.3 ± 0.36 | -2.18 ± 0.31 |
| CUGCAGCAAUAUUACGGCAC | -3.13 ± 0.14 | -0.857 ± 0.12 |
| CUGCAGCAAUAUUACGGCAU | -0.953 ± 0.057 | -0.378 ± 0.071 |
| CUGCAGCAAUAUUACGGCGU | – | -1.04 ± 0.32 |
| CUGCAGCAAUAUUACGGUCC | -3.4 ± 0.23 | -2.99 ± 0.37 |
| CUGCAGCAAUAUUACGGUCU | -3.44 ± 0.17 | -2.07 ± 0.2 |
| CUGCAGCAAUAUUACGGUGG | -3.9 ± 0.19 | -3.09 ± 0.24 |
| CUGCAGCAAUAUUACGUCGA | -3.05 ± 0.12 | -1.65 ± 0.1 |
| CUGCAGCAAUAUUACGUGAC | -0.842 ± 0.063 | 0.23 ± 0.084 |
| CUGCAGCAAUAUUACGUGCC | -2.23 ± 0.21 | -2.26 ± 0.26 |
| CUGCAGCAAUAUUACGUGUA | -3.82 ± 0.23 | -2.63 ± 0.16 |
| CUGCAGCAAUAUUACGUGUU | -4.86 ± 0.31 | -2.28 ± 0.19 |
| CUGGAGCAAUAUUACGAAUU | – | -1.27 ± 0.29 |
| CUGGAGCAAUAUUACGACGA | -1.9 ± 0.29 | -1.7 ± 0.33 |
| CUGGAGCAAUAUUACGAGGU | -3.48 ± 0.23 | -2.11 ± 0.17 |
| CUGGAGCAAUAUUACGAUGC | – | -1.84 ± 0.4 |
| CUGGAGCAAUAUUACGAUGG | -3.66 ± 0.26 | -1.47 ± 0.22 |
| CUGGAGCAAUAUUACGCAAA | -3.87 ± 0.42 | – |
| CUGGAGCAAUAUUACGCCGU | -2.44 ± 0.4 | -1.06 ± 0.38 |
| CUGGAGCAAUAUUACGCUUC | -2.1 ± 0.28 | – |
| CUGGAGCAAUAUUACGGAGA | -3.11 ± 0.42 | – |
| CUGGAGCAAUAUUACGGCGG | -0.649 ± 0.16 | -1.44 ± 0.26 |
| CUGGAGCAAUAUUACGGGCC | – | -2.19 ± 0.31 |
| CUGGAGCAAUAUUACGGUAC | -2.41 ± 0.18 | -2.84 ± 0.27 |
| CUGGAGCAAUAUUACGUAGA | – | -2.67 ± 0.2 |
| CUGGAGCAAUAUUACGUAGG | -1.78 ± 0.071 | -1.4 ± 0.095 |

| Sequence | self-splicing fitness (ln) (30 °C) | self-splicing fitness (ln) (37 °C) |
| --- | --- | --- |
| CUGGAGCAAUAUUACGUCGC | -2.03 ± 0.46 | -2.57 ± 0.48 |
| CUGGAGCAAUAUUACGUCUG | 0.206 ± 0.068 | 0.0818 ± 0.099 |
| CUGGAGCAAUAUUACGUGAC | -1.85 ± 0.18 | -0.992 ± 0.24 |
| CUGGAGCAAUAUUACGUGUC | -3.17 ± 0.2 | -3.18 ± 0.27 |
| CUGUAGCAAUAUUACGAACU | -2.78 ± 0.26 | – |
| CUGUAGCAAUAUUACGACUU | -2.12 ± 0.21 | -1.36 ± 0.33 |
| CUGUAGCAAUAUUACGAGGU | -4.23 ± 0.28 | -2.42 ± 0.21 |
| CUGUAGCAAUAUUACGCCUG | -0.759 ± 0.14 | 0.521 ± 0.16 |
| CUGUAGCAAUAUUACGCGGC | -2.51 ± 0.47 | -2.14 ± 0.3 |
| CUGUAGCAAUAUUACGCUAC | -3.21 ± 0.35 | -1.39 ± 0.32 |
| CUGUAGCAAUAUUACGCUUU | -3.83 ± 0.17 | -3.19 ± 0.21 |
| CUGUAGCAAUAUUACGGCGU | -3.75 ± 0.33 | -2.2 ± 0.33 |
| CUGUAGCAAUAUUACGGGAA | -1.49 ± 0.29 | -2.12 ± 0.35 |
| CUGUAGCAAUAUUACGUACG | -1.43 ± 0.21 | -1.05 ± 0.19 |
| CUGUAGCAAUAUUACGUACU | -2.61 ± 0.11 | -1.3 ± 0.13 |
| CUGUAGCAAUAUUACGUCAA | -2.56 ± 0.19 | -1.85 ± 0.19 |
| CUGUAGCAAUAUUACGUCCG | -0.133 ± 0.08 | 0.0507 ± 0.11 |
| CUGUAGCAAUAUUACGUCGA | -2.71 ± 0.35 | -1.06 ± 0.35 |
| CUGUAGCAAUAUUACGUUAA | -3.31 ± 0.33 | -1.49 ± 0.23 |
| CUGUAGCAAUAUUACGUUGA | -2.93 ± 0.2 | -2.43 ± 0.2 |
| CUUAAGCAAUAUUACGAAAU | -3.41 ± 0.24 | -2.48 ± 0.26 |
| CUUAAGCAAUAUUACGACAA | -2.75 ± 0.41 | -2.98 ± 0.34 |
| CUUAAGCAAUAUUACGACGG | -0.508 ± 0.1 | -0.291 ± 0.13 |
| CUUAAGCAAUAUUACGAGGU | -1.3 ± 0.14 | -3.09 ± 0.26 |
| CUUAAGCAAUAUUACGAUAC | -2.53 ± 0.36 | -2.33 ± 0.5 |

From the supplement of paper PMC7877785
